This is an account of results in patent US20250352667A1.

Test [1] concerns the target KEAP1 (wild-type full-length), His-tagged (human) (UniProt Q14145). As to the kind of experiment: AlphaScreen; 4.8 nM FLAG-NRF2, 150 nM His-KEAP1; Rep 1; control for I28V.
For test [2] the target is unchanged. Kind of test: AlphaScreen; 19.2 nM FLAG-NRF2, 150 nM His-KEAP1; Rep 2; control for I86V.
Test [3] shares this target. Kind of test: AlphaScreen; 19.2 nM FLAG-NRF2, 150 nM His-KEAP1; Rep 3; control for I86V.
The target is the same in test [4]. As to the kind of experiment: AlphaScreen; 38.4 nM FLAG-NRF2, 150 nM His-KEAP1; Rep 2; control for I86V.
The target is the same in test [5]. Kind of test: AlphaScreen; 153.6 nM FLAG-NRF2, 150 nM His-KEAP1; Rep 1; control for I28V.
For test [6] the target is unchanged. Kind of test: AlphaScreen; NRF2 wt isoform 1 9.6 nM, KEAP1 150 nM; set as the 100 % reference for Q75R.
The target is the same in test [7]. Kind of test: AlphaScreen; NRF2 wt isoform 1 19.2 nM, KEAP1 150 nM; set as the 100 % reference for Q75R.
The target is the same in test [8]. Kind of test: AlphaScreen; 4.8 nM FLAG-NRF2, 150 nM His-KEAP1; signal against NRF2 only; control for I28V.
The target is the same in test [9]. Kind of test: AlphaScreen; 19.2 nM FLAG-NRF2, 150 nM His-KEAP1; signal against NRF2 only; control for I86V.
For test [10] the target is unchanged. As to the kind of experiment: AlphaScreen; 307.2 nM FLAG-NRF2, 150 nM His-KEAP1; signal against NRF2 only; control for I28V.
Test [11] shares this target. Kind of test: AlphaScreen; FLAG-NRF2 wt isoform 1 4.8 nM, His-KEAP1 150 nM; Rep 2; positive control for Q75R.
Test [12] has the same target. As to the kind of experiment: AlphaScreen; FLAG-NRF2 wt isoform 1 19.2 nM, His-KEAP1 150 nM; Rep 1; positive control for Q75R.
The target is the same in test [13]. As to the kind of experiment: AlphaScreen; FLAG-NRF2 wt isoform 1 614.4 nM, His-KEAP1 150 nM; Rep 2; positive control for Q75R.
The target is the same in test [14]. As to the kind of experiment: AlphaScreen; mean over 9.6, 19.2 and 38.4 nM NRF2 wt isoform 1, KEAP1 150 nM; reference for Q75R.
Test [15] has the same target. As to the kind of experiment: AlphaScreen; FLAG-NRF2 wt isoform 1 9.6 nM, His-KEAP1 150 nM; Repeat 1; positive control for Q75R.
The target is the same in test [16]. Kind of test: AlphaScreen; FLAG-NRF2 Q75R 4.8 nM, His-KEAP1 150 nM; Rep 1.
Test [17] shares this target. As to the kind of experiment: AlphaScreen; FLAG-NRF2 Q75R 38.4 nM, His-KEAP1 150 nM; Rep 1.
The target is the same in test [18]. As to the kind of experiment: AlphaScreen; FLAG-NRF2 Q75R 307.2 nM, His-KEAP1 150 nM; Rep 2.
For test [19] the target is unchanged. Kind of test: AlphaScreen; NRF2 Q75R 614.4 nM, KEAP1 150 nM; signal against NRF2-only control.
The target is the same in test [20]. As to the kind of experiment: AlphaScreen; 38.4 nM FLAG-NRF2, 150 nM His-KEAP1; Rep 1.
For test [21] the target is unchanged. Kind of test: AlphaScreen; 153.6 nM FLAG-NRF2, 150 nM His-KEAP1; Rep 1.
Test [22] shares this target. Kind of test: AlphaScreen; 614.4 nM FLAG-NRF2, 150 nM His-KEAP1; Rep 2.
The target is the same in test [23]. As to the kind of experiment: AlphaScreen; over 9.6, 19.2 and 38.4 nM NRF2; 150 nM His-KEAP1.
For test [24] the target is unchanged. Kind of test: AlphaScreen; 4.8 nM FLAG-NRF2, 150 nM His-KEAP1; signal against NRF2 only.
The target is the same in test [25]. As to the kind of experiment: AlphaScreen; 38.4 nM FLAG-NRF2, 150 nM His-KEAP1; Repeat 2 (same value as in Table 27).
The target is the same in test [26]. As to the kind of experiment: AlphaScreen; FLAG-NRF2 I86V 153.6 nM, His-KEAP1 150 nM; Rep 1.
Test [27] has the same target. Kind of test: AlphaScreen; NRF2 I86V 19.2 nM, KEAP1 150 nM; signal against NRF2-only control.

KEAP1 (wild-type full-length), His-tagged (human), sequence (Q14145 2-624 limits assumed): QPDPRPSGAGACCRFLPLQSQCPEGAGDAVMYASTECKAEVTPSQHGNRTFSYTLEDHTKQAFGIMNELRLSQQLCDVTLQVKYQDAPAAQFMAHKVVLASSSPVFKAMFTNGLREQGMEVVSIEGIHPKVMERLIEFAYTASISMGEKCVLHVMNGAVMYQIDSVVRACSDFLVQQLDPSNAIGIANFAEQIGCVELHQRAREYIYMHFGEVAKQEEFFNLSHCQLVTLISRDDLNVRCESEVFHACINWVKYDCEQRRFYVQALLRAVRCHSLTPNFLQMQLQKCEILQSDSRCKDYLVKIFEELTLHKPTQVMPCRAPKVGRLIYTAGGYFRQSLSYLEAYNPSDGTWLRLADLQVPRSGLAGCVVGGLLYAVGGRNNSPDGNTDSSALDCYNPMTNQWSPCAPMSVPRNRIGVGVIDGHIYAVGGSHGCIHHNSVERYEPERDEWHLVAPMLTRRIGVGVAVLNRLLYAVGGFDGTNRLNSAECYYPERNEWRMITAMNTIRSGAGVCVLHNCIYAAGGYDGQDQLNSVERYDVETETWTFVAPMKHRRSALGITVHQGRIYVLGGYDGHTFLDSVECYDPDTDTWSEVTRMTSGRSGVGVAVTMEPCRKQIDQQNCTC

B1: NRF2 isoform 1 (wild-type full-length), FLAG-tagged (protein)
chain: MMDLELPPPGLPSQQDMDLIDILWRQDIDLGVSREVFDFSQRRKEYELEKQKKLEKERQEQLQKEQEKAFFAQLQLDEETGEFLPIQPAQHIQSETSGSANYSQVAHIPKSDALYFDDCMQLLAQTFPFVDDNEVSSATFQSLVPDIPGHIESPVFIATNQAQSPETSVAQVAPVDLDGMQQDIEQVWEELLSIPELQCLNIENDKLVETTMVPSPEAKLTEVDNYHFYSSIPSMEKEVGNCSPHFLNAFEDSFSSILSTEDPNQLTVNSLNSDATVNTDFGDEFYSAFIAEPSISNSMPSPATLSHSLSELLNGPIDVSDLSLCKAFNQNHPESTAEFNDSDSGISLNTSPSVASPEHSVESSSYGDTLLGLSDSEVEELDSAPGSVKQNGPKTPVHSSGDMVQPLSPSQGQSTHVHDAQCENTPEKELPVSPGHRKTPFTKDKHSSRLEAHLTRDELRAKALHIPFPVEKIINLPVVDFNEMMSKEQFNEAQLALIRDIRRRGKNKVAAQNCRKRKLENIVELEQDLDHLKDEKEKLLKEKGENDKSLHLLKKQLSTLYLEVFSMLRDEDGKPYSPSEYSLQQTRDGNVFLVPKSKKPDVKKN
Regarding B1, the A-counts in test [1] amounted to 1120 A-counts; in test [2], 3270 A-counts; in test [3] it was 3040 A-counts; in test [4], 2850 A-counts; in [5], 1930 A-counts. The Binding Percentage in [6] and in test [7] was 100% throughout. The S/N was found to be 3.2 in [8], 4.1 in test [9] and 1.3 in test [10]. In addition, the A-counts (NRF2 plus KEAP1) came to 754 A-counts in test [11], 1360 A-counts in test [12], 1710 A-counts in test [13] and 1024 A-counts in test [15]. The molecule also gave an Average Binding in [14] of 100%.

B2: NRF2 isoform 1 (Q75R full-length), FLAG-tagged (protein)
chain: MMDLELPPPGLPSQQDMDLIDILWRQDIDLGVSREVFDFSQRRKEYELEKQKKLEKERQEQLQKEQEKAFFAQLRLDEETGEFLPIQPAQHIQSETSGSANYSQVAHIPKSDALYFDDCMQLLAQTFPFVDDNEVSSATFQSLVPDIPGHIESPVFIATNQAQSPETSVAQVAPVDLDGMQQDIEQVWEELLSIPELQCLNIENDKLVETTMVPSPEAKLTEVDNYHFYSSIPSMEKEVGNCSPHFLNAFEDSFSSILSTEDPNQLTVNSLNSDATVNTDFGDEFYSAFIAEPSISNSMPSPATLSHSLSELLNGPIDVSDLSLCKAFNQNHPESTAEFNDSDSGISLNTSPSVASPEHSVESSSYGDTLLGLSDSEVEELDSAPGSVKQNGPKTPVHSSGDMVQPLSPSQGQSTHVHDAQCENTPEKELPVSPGHRKTPFTKDKHSSRLEAHLTRDELRAKALHIPFPVEKIINLPVVDFNEMMSKEQFNEAQLALIRDIRRRGKNKVAAQNCRKRKLENIVELEQDLDHLKDEKEKLLKEKGENDKSLHLLKKQLSTLYLEVFSMLRDEDGKPYSPSEYSLQQTRDGNVFLVPKSKKPDVKKN
As to B2, the figures for the A-counts (NRF2 plus KEAP1) in test [16], in [17] and in test [18] were 826 A-counts, 1200 A-counts and 1020 A-counts, respectively. In addition, the S/N in [19] came to 0.8.

B3: NRF2 isoform 1 (I28V full-length), FLAG-tagged (protein)
chain: MMDLELPPPGLPSQQDMDLIDILWRQDVDLGVSREVFDFSQRRKEYELEKQKKLEKERQEQLQKEQEKAFFAQLQLDEETGEFLPIQPAQHIQSETSGSANYSQVAHIPKSDALYFDDCMQLLAQTFPFVDDNEVSSATFQSLVPDIPGHIESPVFIATNQAQSPETSVAQVAPVDLDGMQQDIEQVWEELLSIPELQCLNIENDKLVETTMVPSPEAKLTEVDNYHFYSSIPSMEKEVGNCSPHFLNAFEDSFSSILSTEDPNQLTVNSLNSDATVNTDFGDEFYSAFIAEPSISNSMPSPATLSHSLSELLNGPIDVSDLSLCKAFNQNHPESTAEFNDSDSGISLNTSPSVASPEHSVESSSYGDTLLGLSDSEVEELDSAPGSVKQNGPKTPVHSSGDMVQPLSPSQGQSTHVHDAQCENTPEKELPVSPGHRKTPFTKDKHSSRLEAHLTRDELRAKALHIPFPVEKIINLPVVDFNEMMSKEQFNEAQLALIRDIRRRGKNKVAAQNCRKRKLENIVELEQDLDHLKDEKEKLLKEKGENDKSLHLLKKQLSTLYLEVFSMLRDEDGKPYSPSEYSLQQTRDGNVFLVPKSKKPDVKKN
Consider B3, for which the A-counts is 1690 A-counts in test [20], 1400 A-counts in [21], 1210 A-counts in test [22] and 1680 A-counts in test [25]. For the same molecule, the Standard Deviation (of binding percentage) in test [23] is 7.2%. Besides, the S/N in [24] amounted to 2.9.

B4: NRF2 isoform 1 (I86V full-length), FLAG-tagged (protein)
chain: MMDLELPPPGLPSQQDMDLIDILWRQDIDLGVSREVFDFSQRRKEYELEKQKKLEKERQEQLQKEQEKAFFAQLQLDEETGEFLPVQPAQHIQSETSGSANYSQVAHIPKSDALYFDDCMQLLAQTFPFVDDNEVSSATFQSLVPDIPGHIESPVFIATNQAQSPETSVAQVAPVDLDGMQQDIEQVWEELLSIPELQCLNIENDKLVETTMVPSPEAKLTEVDNYHFYSSIPSMEKEVGNCSPHFLNAFEDSFSSILSTEDPNQLTVNSLNSDATVNTDFGDEFYSAFIAEPSISNSMPSPATLSHSLSELLNGPIDVSDLSLCKAFNQNHPESTAEFNDSDSGISLNTSPSVASPEHSVESSSYGDTLLGLSDSEVEELDSAPGSVKQNGPKTPVHSSGDMVQPLSPSQGQSTHVHDAQCENTPEKELPVSPGHRKTPFTKDKHSSRLEAHLTRDELRAKALHIPFPVEKIINLPVVDFNEMMSKEQFNEAQLALIRDIRRRGKNKVAAQNCRKRKLENIVELEQDLDHLKDEKEKLLKEKGENDKSLHLLKKQLSTLYLEVFSMLRDEDGKPYSPSEYSLQQTRDGNVFLVPKSKKPDVKKN
With B4, in test [26], the A-counts (NRF2 plus KEAP1) came to 2380 A-counts. The same molecule yielded a S/N in [27] of 4.
